Assay [1] deals with T1, full-length human Sp35 with an N-terminal HA tag (lysate of transfected COS-1 cells) (human, UniProt Q96FE5 40-620).
T1 construct: used here for all IP columns headed huSp35 / hLINGO-1; also called huSp35 (IP); hLINGO-1 (IP)
T1 sequence: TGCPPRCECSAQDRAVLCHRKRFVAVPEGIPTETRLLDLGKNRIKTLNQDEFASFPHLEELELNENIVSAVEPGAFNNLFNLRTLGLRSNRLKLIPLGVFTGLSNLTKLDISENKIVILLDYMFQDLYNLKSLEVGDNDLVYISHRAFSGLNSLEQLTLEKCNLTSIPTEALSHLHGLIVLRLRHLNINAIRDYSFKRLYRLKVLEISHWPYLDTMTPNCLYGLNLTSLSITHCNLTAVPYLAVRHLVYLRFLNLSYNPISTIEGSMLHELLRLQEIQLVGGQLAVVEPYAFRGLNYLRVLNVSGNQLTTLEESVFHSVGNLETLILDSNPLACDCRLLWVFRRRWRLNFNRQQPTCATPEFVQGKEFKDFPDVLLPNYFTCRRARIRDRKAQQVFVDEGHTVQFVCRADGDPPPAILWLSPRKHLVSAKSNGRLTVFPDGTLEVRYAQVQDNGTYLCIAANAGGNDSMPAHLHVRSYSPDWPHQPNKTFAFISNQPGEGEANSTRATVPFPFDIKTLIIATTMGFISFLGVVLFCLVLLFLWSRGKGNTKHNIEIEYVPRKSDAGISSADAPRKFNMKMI
The assay can be described thus: IP. Here is the method: To perform the immunoprecipitation, COS-1 cells expressing Sp35, fused to a hemaglutinin (HA) tag on the N-terminus, were produced by transiently transfecting COS-1 cells with a DNA construct which expresses the full-length Sp35 protein with an HA tag. Cells were harvested 48 hr after transfection and were lysed in 1 ml lysis buffer (50 mM HEPES, pH 7.5, 150 mM NaCl, 1.5 mM MgCl₂, 1 mM EGTA, 1% Triton X-100 and 10% glycerol) for 30 min at 4° C. After centrifugation at 14,000×g for 15 min, the supernatants were incubated with ProteinA/G-Sepharose beads (Santa Cruz) at 4° C. for 1 hr, and then incubated at 4° C. for 1 hr with either the 1A7 or the 2F3 anti-Sp35 murine monoclonal antibodies. The beads were washed 3 times with lysis buffer, boiled in Laemmli sample buffer, subjected to 4-20% SDS-PAGE, and analyzed by Western blotting using an antibody which recognizes the HA tag. As shown on the SDS-PAGE gel, monoclonal antibodies 1A7 and 2F3, immunoprecipitated human and murine Sp35 (FIG. 1). […] Similarly, monoclonal antibodies 1G7, 2B10, 2F3, 3P4C2.2D2, 3P4C8.2G9, Li01, Li03, Li05, Li06, Li07, Li08, Li11, Li12, 7P1D5.1G9 and 3B5.2 immunoprecipitate human or mouse or human and mouse Sp35 (See Table 3B and 3C). Additionally, Li08 immunoprecipitates AP-Sp35 and monoclonal antibodies 1B6.4 and 3E3.1 immunoprecipitate endogenous Sp35 (See Table 3B).

Assay [2] has as its target T2, human Sp35 protein (ELISA, Western, KD; form not stated) (human, UniProt Q96FE5 40-538, limits assumed).
T2 construct: also called huSp35; hLINGO-1
T2 sequence: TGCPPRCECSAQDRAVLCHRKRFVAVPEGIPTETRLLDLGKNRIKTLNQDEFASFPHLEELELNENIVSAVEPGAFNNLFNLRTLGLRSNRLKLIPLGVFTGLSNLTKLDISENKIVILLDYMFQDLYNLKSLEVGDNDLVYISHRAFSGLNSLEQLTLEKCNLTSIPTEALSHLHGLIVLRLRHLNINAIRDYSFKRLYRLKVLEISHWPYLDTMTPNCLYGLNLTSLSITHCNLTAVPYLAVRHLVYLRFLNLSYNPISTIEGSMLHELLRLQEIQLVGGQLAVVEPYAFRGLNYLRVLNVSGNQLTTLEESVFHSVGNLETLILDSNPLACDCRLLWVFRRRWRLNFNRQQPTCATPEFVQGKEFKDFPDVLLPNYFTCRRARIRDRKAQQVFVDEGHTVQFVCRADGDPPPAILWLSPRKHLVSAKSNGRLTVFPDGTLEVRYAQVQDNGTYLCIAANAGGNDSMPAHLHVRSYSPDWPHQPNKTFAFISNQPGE
Kind of assay: ELISA. In general terms: An ELISA detects its analyte on a solid surface through an enzyme-linked reagent.

For assay [3], the target named is T3, human Sp35 protein expressed on transfected cells (human, UniProt Q96FE5 40-620).
T3 construct: also called huSp35; hLINGO-1
T3 sequence: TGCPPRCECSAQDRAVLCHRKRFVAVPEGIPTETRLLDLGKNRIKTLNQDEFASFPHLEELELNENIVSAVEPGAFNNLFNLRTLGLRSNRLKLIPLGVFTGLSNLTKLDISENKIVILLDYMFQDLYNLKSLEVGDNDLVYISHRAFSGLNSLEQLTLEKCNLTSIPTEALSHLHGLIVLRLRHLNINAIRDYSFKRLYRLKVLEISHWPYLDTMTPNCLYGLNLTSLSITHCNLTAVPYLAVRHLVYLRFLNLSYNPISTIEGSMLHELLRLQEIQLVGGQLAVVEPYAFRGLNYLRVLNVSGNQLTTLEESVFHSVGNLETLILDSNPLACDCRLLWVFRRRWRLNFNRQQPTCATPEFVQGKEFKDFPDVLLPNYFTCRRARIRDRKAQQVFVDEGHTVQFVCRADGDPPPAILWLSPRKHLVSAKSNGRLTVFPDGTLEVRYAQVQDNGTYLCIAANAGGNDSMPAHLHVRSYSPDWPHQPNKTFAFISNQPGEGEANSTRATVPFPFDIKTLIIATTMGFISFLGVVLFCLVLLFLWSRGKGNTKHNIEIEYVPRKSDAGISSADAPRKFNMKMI
The assay can be described thus: FACS. On the technique in general: Flow cytometry measures light scatter and fluorescence of single cells or particles in a stream.

The target in assay [4] is T4, Sp35 fragment 34-532 (ELISA) (human, UniProt Q96FE5 40-538).
T4 sequence: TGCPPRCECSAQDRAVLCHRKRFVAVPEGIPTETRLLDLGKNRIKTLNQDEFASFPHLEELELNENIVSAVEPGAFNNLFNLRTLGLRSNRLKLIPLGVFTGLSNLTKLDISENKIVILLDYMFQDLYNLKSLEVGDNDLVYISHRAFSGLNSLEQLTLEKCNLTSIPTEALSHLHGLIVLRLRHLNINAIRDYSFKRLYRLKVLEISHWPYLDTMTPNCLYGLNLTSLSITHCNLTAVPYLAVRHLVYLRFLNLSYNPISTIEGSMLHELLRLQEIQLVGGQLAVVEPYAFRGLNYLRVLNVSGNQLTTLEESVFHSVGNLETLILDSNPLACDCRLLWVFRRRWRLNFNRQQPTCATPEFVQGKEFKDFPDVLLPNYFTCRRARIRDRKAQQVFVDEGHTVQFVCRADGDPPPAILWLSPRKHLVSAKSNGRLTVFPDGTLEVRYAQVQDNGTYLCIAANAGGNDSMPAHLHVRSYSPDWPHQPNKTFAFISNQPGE
The assay can be described thus: ELISA. Here is the method: (§1) In order to determine which regions of the Sp35 polypeptide were bound by the various hybridoma- and phage display-derived monoclonal antibodies produced in Example 2, an ELISA assay was performed using a panel of truncated Sp35 polypeptides, each fused to the hinge and Fc regions of IgG1 by the methods described in Example 1. […] Ovalbumin and BSA were used as controls. […] The affinity of these latter antibodies for mouse and rat Sp35 was restored to the level seen using human Sp35 when amino acid 419 of the mouse or rat Sp35 is changed from histidine (H) to arginine (R). Arginine is the amino acid at position 419 in human Sp35. […] AP substrate was then developed by 10 mg/ml 4 NPP in 0.1 M Glycine, 1 mM MgCl₂, 1 mM ZnCl₂, pH 10.5, and read at O.D. 405.

Assay [5] addresses T5, Sp35-Fc fusion protein (human Sp35 residues 1-532 fused to hinge and Fc of human IgG1) (human, UniProt Q96FE5 40-538).
T5 construct: also called LINGO-1-Ig; LINGO-1-Fc; not shown: hinge and Fc region of human IgG1
T5 sequence: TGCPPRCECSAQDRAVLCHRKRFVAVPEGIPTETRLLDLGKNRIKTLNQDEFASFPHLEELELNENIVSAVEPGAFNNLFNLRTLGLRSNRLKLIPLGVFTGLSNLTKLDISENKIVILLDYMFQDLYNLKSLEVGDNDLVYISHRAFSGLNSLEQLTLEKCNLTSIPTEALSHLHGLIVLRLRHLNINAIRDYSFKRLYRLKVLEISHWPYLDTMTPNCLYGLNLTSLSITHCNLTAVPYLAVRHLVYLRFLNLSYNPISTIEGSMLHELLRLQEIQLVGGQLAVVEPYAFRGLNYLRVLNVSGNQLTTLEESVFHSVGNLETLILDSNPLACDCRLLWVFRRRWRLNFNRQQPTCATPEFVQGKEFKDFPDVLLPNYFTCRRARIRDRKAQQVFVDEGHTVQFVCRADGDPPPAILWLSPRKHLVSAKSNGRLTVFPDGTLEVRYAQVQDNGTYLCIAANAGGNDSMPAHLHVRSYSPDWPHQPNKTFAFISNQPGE
The assay can be described thus: ELISA. Here is the method:
as §1

The target in assay [6] is T1, full-length human Sp35 with an …. The assay can be described thus: IP. The source holds these as a separate data set.

Like-named read-outs stand apart in the source and are kept apart here.

B1: 35-E04 (Li03) Fab (Fab, V domains shown)
VH: EVQLLESGGGLVQPGGSLRLSCAASGFTFSQYPMEWVRQAPGKGLEWVSGIYPSGGSTVYADSVKGRFTISRDNSKNTLYLQMNSLRAEDTAVYYCARAGQWLGDFDYWGQGTLVTVSS
VL: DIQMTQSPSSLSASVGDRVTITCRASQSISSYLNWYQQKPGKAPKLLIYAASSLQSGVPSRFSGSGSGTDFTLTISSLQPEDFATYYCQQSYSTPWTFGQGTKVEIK
notes: human, kappa; also called Dli03
Turning to B1, the binding result in assay [1] and in assay [2] was “binds” in each case.

B2: 79-G02 (Dli32) Fab (Fab, V domains shown)
VH: EVQLLESGGGLVQPGGSLRLSCAASGFTFSAYMMQWVRQAPGKGLEWVSSISPSGGNTKYADSVKGRFTISRDNSKNTLYLQMNSLRAEDTAVYYCARGDYGYWFDPWGQGTLVTVSS
VL: DIQMTQSPDSLSASVGDRVTITCQASQDISYYLNWYQQKPGMAPKLLIYDAFILEGGAPSRFSGSGSGTDFSFTISNLQPEDIATYFCQQSDQLPVTFGQGTKVEIR
notes: human
With B2, in assay [2], the binding result is “binds”.

B3: 30-B01 (Li11) Fab (Fab, V domains shown)
VH: EVQLLESGGGLVQPGGSLRLSCAASGFTFSSYAMYWVRQAPGKGLEWVSSISTSGGYTGYADSVKGRFTISRDNSKNTLYLQMNSLRAEDTAVYYCARDTSDNDYYYMDVWGKGTTVTVSS
VL: DIQMTQSPSSVSAPIGDRVTITCRASQEIANYLAWYQQKPGKAPKLLIYDTYTLQTDVPPRFSGSGSGTDFTLTISSLQPEDTATYFCQQADIFPLSFGGGTKVEIK
notes: human, kappa; also called Dli11; Li011
Consider B3, for which the binding result in assay [3], in assay [1] and in assay [2] was “binds” each time.

B4: 3P1D10.2C3 (antibody, mouse IgG1, V domains shown)
VH: QVQLQQSGAELARPGASVKLSCRASGYTFTSSWTQWVKQRPGQGLEWIGAIYPGDGDTRYTQKFKGKATLTADKSSSTAYMQLSSLASEDSAVYYCARHNSYGMDYWGQGTSVTVSS
VL: DIVMTQSPSSLTVTAGEKVTMSCKSSQSLLNSGNQKNYLTWYQQKPGQPPKLLIYWASTRESGVPDRFTGSGSGTDFTLTINSVQAEDLAVYYCQNDYSYPLFTFGSGTKLEIR
notes: murine IgG1
Consider B4, for which the binding result in assay [1], in assay [2], in assay [4] and in assay [5] was “binds” in each case.

B5: 3P1E11.3B7 (antibody, mouse IgG1, V domains shown)
VH: QVQLQQSGAELARPGASVKLSCRASGYTFTSSWTQWVKQRPGQGLEWIGAIYPGDGDTRYTQKFKGKATLTADKSSSTAYMQLSSLASEDSAVYYCARHNSYGMDYWGQGTSVTVSS
VL: DIVMTQSPSSLTVTAGEKVTMSCKSSQSLLNSGNQKSYLTWYQQKPGQPPKLLIYWASTRESGVPDRFTGSGSGTDFTLTINSVQAEDLAVYYCQNDYSYPLFTFGSGTKLEIR
notes: murine IgG1
On to B5, for which the binding result in assay [1], in assay [2], in assay [4] and in assay [5] was “binds” in each case.

B6: 80-D02 (Dli34) Fab (Fab, V domains shown)
VH: EVQLLESGGGLVQPGGSLRLSCAASGFTFSNYEMYWVRQAPGKGLEWVSGIYSSGGITVYADSVKGRFTISRDNSKNTLYLQMNSLRAEDTAVYYCARAAILDWYFDLWGRGTLVTVSS
VL: DIQMTQSPSSLSASVGDRVTITCHASQDISNYLSWYQQKPGKAPKLLIYDAFNLETGVPSRFSGSGSGTDFTFTISSLQPEDFATYYCQHYDNLPFTFGPGTRVAIR
notes: human
B6: the binding result in assay [6] and in assay [2] was “binds” throughout.

B7: 28-D02 (Li10) Fab (Fab, V domains shown)
VH: EVQLLESGGGLVQPGGSLRLSCAASGFTFSTYPMVWVRQAPGKGLEWVSWIGPSGGVTAYADSVKGRFTISRDNSKNTLYLQMNSLRAEDTAVYYCARPYSSGWWDFDLWGRGTLVTVSS
VL: DIQMTQSPSSMSASVGDTVTITCRASQGIGNWLAWYQQKPGKAPTLLIYAASSLESGVPSRFTGSGSSSGIDFTLTISDLHPEDLATYYCQQAQTFPLTFGGGTRVDLK
notes: human, kappa; also called Dli10
As for B7, in assay [2], the binding result is reported as “binds”.

Source of the values: patent publication US20090252748A1 (Biogen, published 2009).
